Test results from patent US20210230295A1 (HANGZHOU SUMGEN BIOTECH, published 2021).
Values belong to the binder of their own block, whether it stands above or below them.

Columns and labels:
[1] = molecular target: T1, AXL-Fc (fusion protein of human AXL protein extracellular domain-human IgG1 Fc) (human); assay: ELISA, AXL-Fc coated at 1 ug/ml, anti-human Fab-HRP detection
T1 construct: Expressed in CHO-K1 cells
Protocol: The AXL-Fc prepared in Example 1 was coated on the ELISA plate at 1 μg/ml at 4° C. overnight. After washing with PBST, 10% fetal bovine serum was added and blocked at 37° C. for 1 hour. Different concentrations of the C6G12 antibody prepared in Example 3 were added and reacted at 37° C. for 1 hour. After washing with PBST, horseradish peroxidase-labeled goat anti-human Fab secondary antibody (Goat Anti-human IgG(Fab′)2 (HRP), Abcam) was added and reacted at 37° C. for 30 minutes. The plate was repeatedly washed with PBST for 5 times, and dried to remove residual droplets as possible by absorbent paper. 100 μl of TMB (eBioscience) was added to each well, and stood at room temperature (20±5° C.) in the dark for 1.5 minutes. 100 μl of 2N H₂SO₄ stop solution was added to each well to stop the substrate reaction. The OD value was read with a microplate reader at 450 nm. The binding ability of the C6G12 antibody to AXL-Fc was analyzed.

[2] = molecular target: T2, AXL (Beijing Yiqiao Shenzhou Bio Technology Co., Ltd., 6xHis label, with a molecular weight of 65 Kda) (UniProt P30530 33-449); assay: SPR (BIACORE), C6G12 captured by anti-human IgG-Fc antibody, AXL-His as mobile phase
T2 construct: Bought protein used as the mobile phase in BIACORE; not shown: 6xHis label
T2 sequence (looked up): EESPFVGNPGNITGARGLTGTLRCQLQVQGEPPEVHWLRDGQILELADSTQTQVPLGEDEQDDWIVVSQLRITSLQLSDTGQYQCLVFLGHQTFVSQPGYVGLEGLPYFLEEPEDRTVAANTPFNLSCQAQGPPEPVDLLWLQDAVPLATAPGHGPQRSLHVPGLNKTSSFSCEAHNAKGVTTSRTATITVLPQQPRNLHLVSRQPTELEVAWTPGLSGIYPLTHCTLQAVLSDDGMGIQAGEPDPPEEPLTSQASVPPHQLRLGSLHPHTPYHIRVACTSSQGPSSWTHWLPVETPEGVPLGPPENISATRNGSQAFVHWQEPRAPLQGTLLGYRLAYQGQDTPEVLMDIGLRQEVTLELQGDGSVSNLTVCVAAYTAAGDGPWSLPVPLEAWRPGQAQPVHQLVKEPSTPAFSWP
Protocol: The antibody affinity was analyzed by BIACORE biomacromolecule interaction analyzer (GE Company). The anti-human IgG-Fc antibody (purchased from Abcam) was coupled to the chip, and used to capture the C6G12 antibody with an antibody concentration set as 0.5 μg/mL and an injection time of 60 seconds. AXL (Beijing Yiqiao Shenzhou Bio Technology Co., Ltd., 6×His label, with a molecular weight of 65 Kda) was taken as the mobile phase, with 6 concentration gradients (1, 0.4, 0.16, 0.064, 0.0256, 0.01024 μg/mL), a binding time of 180 seconds, and a dissociation time of 1200 seconds.

[3] = molecular target: T3, AXL on the surface of human tumor cells (human, UniProt P30530 26-894); assay: cell-based or functional assay
T3 sequence: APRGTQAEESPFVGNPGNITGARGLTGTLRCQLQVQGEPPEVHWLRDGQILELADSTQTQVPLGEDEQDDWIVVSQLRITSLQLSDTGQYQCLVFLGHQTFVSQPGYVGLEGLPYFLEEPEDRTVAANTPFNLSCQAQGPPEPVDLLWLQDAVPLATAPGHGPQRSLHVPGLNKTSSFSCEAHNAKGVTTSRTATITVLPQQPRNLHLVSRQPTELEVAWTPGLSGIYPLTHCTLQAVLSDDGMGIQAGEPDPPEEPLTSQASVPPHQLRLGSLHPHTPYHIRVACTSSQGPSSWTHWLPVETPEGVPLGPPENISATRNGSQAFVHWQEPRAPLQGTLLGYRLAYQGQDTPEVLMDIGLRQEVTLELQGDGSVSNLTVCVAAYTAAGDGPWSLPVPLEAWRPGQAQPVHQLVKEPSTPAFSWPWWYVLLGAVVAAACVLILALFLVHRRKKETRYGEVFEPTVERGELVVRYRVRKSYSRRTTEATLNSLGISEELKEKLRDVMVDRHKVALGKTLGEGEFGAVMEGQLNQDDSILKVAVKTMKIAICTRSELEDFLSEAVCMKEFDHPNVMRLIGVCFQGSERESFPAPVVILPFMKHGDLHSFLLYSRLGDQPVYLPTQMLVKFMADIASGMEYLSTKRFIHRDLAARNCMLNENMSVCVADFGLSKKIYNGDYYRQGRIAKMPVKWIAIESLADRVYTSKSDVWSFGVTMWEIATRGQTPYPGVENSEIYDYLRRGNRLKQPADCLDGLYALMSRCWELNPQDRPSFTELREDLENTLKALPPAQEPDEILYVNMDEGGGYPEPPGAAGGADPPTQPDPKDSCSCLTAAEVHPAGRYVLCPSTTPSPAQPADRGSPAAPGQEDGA

[4] = molecular target: CD47 (Beijing Magpel Biotechnology Co., Ltd.) (UniProt Q08722 19-139, limits assumed); assay: ELISA, protein coated at 1 ug/ml, OD 450 nm
Protocol: (§1) Milk (Beijing Bomed Biotechnology Co., Ltd.), BSA (BOVOGEN), CD19 (Beijing Yiqiao Shenzhou Biotechnology Co., Ltd.), TROP2 (Beijing Yiqiao Shenzhou Biotechnology Co., Ltd.), BCMA (ACRO Biosystems), CD47 (Beijing Magpel Biotechnology Co., Ltd.), CD38 (Beijing Yiqiao Shenzhou Biotechnology Co., Ltd.), Gas6 (R&D) and each protein and AXL (ACRO Biosystems) were coated with ELISA plates at 1 μg/ml at 4° C. overnight, respectively. After washing with PBST, 10% fetal bovine serum was added and blocked at 37° C. for 1 hour. The C6G12 antibody prepared in Example 3 was added and reacted at 37° C. for 1 hour. After washing with PBST, horseradish peroxidase labeled goat anti-human IgG secondary antibody (GOAT Anti human (HRP), Thermo Fisher Scientific, #31412) was added and reacted at room temperature for 30 minutes. The plates were repeatedly washed with PBST for 5 times, and dried the residual droplets as possible on absorbent paper. […] (eBioscience, #85-00-420) was added and stood at room temperature (20±5 ) in the dark for 1.5 minutes. […] stop solution was added to each well to stop the substrate reaction. The OD value was read with a microplate reader at 450 nm. The binding abilities of antibodies and proteins were analyzed.

[5] = molecular target: T4, CD38 (Beijing Yiqiao Shenzhou Biotechnology Co., Ltd.) (UniProt P28907 43-300); assay: ELISA, protein coated at 1 ug/ml, OD 450 nm
T4 sequence (looked up): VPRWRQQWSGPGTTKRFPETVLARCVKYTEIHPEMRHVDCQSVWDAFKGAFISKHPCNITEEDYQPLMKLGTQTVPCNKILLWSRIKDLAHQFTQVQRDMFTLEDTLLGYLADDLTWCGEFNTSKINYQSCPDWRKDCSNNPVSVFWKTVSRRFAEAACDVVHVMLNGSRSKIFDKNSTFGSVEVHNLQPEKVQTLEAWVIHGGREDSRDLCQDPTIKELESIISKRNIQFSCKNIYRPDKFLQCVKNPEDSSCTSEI
Protocol: as §1

Gas6 (R&D) = molecular target: T5, Gas6 (R&D) (UniProt Q14393 49-678, limits assumed); assay: ELISA, protein coated at 1 ug/ml, OD 450 nm
T5 sequence (looked up): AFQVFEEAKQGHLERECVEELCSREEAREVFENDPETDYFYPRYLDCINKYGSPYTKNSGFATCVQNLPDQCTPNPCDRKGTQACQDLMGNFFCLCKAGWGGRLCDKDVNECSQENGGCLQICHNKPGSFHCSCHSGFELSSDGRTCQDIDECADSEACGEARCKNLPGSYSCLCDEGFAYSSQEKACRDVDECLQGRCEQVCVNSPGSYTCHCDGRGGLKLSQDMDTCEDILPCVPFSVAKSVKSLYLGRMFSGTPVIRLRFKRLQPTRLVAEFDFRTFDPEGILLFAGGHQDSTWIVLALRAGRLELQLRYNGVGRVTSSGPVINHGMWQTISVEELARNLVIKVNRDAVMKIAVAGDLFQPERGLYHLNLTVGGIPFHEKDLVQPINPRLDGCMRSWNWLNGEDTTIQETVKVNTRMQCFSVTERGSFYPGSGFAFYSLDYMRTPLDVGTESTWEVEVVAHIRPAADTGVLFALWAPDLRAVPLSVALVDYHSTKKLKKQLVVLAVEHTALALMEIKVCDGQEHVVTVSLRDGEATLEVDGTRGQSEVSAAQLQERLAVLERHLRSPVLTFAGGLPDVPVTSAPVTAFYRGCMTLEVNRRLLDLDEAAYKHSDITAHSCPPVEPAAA
Protocol: as §1

[6] = molecular target: T6, CD19 (Beijing Yiqiao Shenzhou Biotechnology Co., Ltd.) (UniProt P15391 20-291); assay: ELISA, protein coated at 1 ug/ml, OD 450 nm
T6 sequence (looked up): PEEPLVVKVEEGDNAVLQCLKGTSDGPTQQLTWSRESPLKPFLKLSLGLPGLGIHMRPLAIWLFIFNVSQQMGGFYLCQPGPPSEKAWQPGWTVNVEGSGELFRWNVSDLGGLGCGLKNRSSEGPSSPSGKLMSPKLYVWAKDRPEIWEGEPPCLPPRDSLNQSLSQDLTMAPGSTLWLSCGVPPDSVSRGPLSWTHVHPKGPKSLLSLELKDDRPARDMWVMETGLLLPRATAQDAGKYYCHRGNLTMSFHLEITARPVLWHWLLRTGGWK
Protocol: as §1

BSA (BOVOGEN) = molecular target: T7, BSA (BOVOGEN) (UniProt P02769 25-607); assay: ELISA, protein coated at 1 ug/ml, OD 450 nm
T7 construct: Specificity control
Protocol: as §1

BCMA (ACRO Biosystems) = molecular target: T8, BCMA (ACRO Biosystems) (UniProt Q02223 1-54); assay: ELISA, protein coated at 1 ug/ml, OD 450 nm
T8 sequence (looked up): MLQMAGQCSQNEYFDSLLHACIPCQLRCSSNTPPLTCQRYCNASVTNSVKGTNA
Protocol: as §1

[7] = molecular target: T9, TROP2 (Beijing Yiqiao Shenzhou Biotechnology Co., Ltd.) (UniProt P09758 27-274); assay: ELISA, protein coated at 1 ug/ml, OD 450 nm
T9 sequence (looked up): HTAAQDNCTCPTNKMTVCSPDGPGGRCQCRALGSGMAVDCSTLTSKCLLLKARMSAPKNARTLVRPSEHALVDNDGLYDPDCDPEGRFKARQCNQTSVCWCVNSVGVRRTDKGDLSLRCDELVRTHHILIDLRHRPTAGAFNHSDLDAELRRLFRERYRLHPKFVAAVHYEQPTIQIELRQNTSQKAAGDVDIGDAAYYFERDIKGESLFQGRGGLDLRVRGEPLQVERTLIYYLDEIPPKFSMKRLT
Protocol: as §1

[8] = molecular target: T1, AXL-Fc (fusion protein of human AXL …); assay: ELISA, AXL-Fc coated at 1 ug/ml, anti-mouse IgG-HRP detection
Protocol: The AXL-Fc prepared in Example 1 was coated on the ELISA plate at 1 μg/ml at 4° C. overnight. After washing with PBST, 10% fetal bovine serum was added and blocked at 37° C. for 1 hour. Different concentrations of the 6G12 antibodies were added and reacted at 37° C. for 1 hour. After washing with PBST, horseradish peroxidase-labeled goat anti-mouse secondary antibody (Goat Anti-mouse IgGHRP, Abcam) was added and reacted at 37° C. for 30 minutes. The plate was repeatedly washed with PBST for 5 times, and dried to remove residual droplets as possible by absorbent paper. 100 μl of TMB (eBioscience) was added into each well, and stood at room temperature (20±5 ) in the dark for 1.5 minutes. 100 μl of 2N H₂SO₄ stop solution was added to each well to stop the substrate reaction. The OD value was read with a microplate reader at 450 nm. The binding ability of the antibody to AXL-Fc was analyzed.

Chain of CD47 (Beijing Magpel Biotechnology Co., Ltd.) (Q08722 19-139 limits assumed): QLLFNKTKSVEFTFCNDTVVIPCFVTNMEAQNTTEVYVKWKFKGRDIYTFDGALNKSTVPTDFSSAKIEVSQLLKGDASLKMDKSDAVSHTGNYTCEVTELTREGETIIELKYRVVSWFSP
T7 sequence (P02769 25-607 limits assumed): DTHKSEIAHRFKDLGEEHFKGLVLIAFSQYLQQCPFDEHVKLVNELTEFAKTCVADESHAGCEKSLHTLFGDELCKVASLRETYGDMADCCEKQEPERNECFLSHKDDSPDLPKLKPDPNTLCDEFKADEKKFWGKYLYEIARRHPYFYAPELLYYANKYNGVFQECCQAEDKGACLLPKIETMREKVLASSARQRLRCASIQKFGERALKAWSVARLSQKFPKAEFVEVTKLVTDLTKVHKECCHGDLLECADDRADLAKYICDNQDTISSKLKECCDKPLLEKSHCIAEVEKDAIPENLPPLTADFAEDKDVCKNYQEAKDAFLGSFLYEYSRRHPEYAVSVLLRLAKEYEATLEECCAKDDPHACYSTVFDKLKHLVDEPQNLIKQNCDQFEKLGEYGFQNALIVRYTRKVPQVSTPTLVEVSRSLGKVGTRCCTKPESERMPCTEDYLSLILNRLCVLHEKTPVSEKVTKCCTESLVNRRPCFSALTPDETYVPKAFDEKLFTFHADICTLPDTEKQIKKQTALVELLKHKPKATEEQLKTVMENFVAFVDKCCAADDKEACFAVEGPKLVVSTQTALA

EC50 [1]: 19.4 ng/mL | Kd [2]: 0.154 nM | koff [2]: 0.000402 s⁻¹ | kon [2]: 2.61e+06 M⁻¹ s⁻¹ | internalization efficiency EC50 on human breast cancer MDA-MB-231 cells (flow cytometry, surface MFI at 4 C against 37 C) [3]: 0.89 ng/mL | internalization efficiency EC50 on human non-small cell lung cancer A549 cells (flow cytometry, surface MFI at 4 C against 37 C) [3]: 0.61 ng/mL | internalization efficiency EC50 on human pancreatic cancer MIA PaCa-2 cells (flow cytometry, surface MFI at 4 C against 37 C) [3]: 1.3 ng/mL | internalization efficiency EC50 on renal clear cell adenocarcinoma 786-O cells (flow cytometry, surface MFI at 4 C against 37 C) [3]: 1.5 ng/mL | binding result [4]: no binding | binding result [5]: no binding | binding result (Gas6 (R&D)): no binding | binding result [6]: no binding | binding result (BSA (BOVOGEN)): no binding | binding result (BCMA (ACRO Biosystems)): no binding | binding result [7]: no binding
B1: C6G12 antibody (Chimeric 6G12) (antibody, human IgG1, kappa, V domains shown)
VH: QVQLKQSGPGLVKPSQSLSLTCSVTGFSISSGYYWNWIRQFPGNKLEWMGYRSYDGSNNYNPSLKNRISITRDTSKNQFFLKLNSVTTEDTATYYCARGWLLHYTMDYWGQGTSVTVSS
VL: ELVMTQSPFSNAVTLGTSASISCRSSRSLLHSNGFTYLYWYLQKPGQSPQLLIYQMSNLASGVPDRFSSSGSGTDFTLRISRVEAEDVGVYYCGQNLELPLTFGAGTKLELKR
notes: 6G12 variable regions with a human IgG1 constant region, expressed in CHO-S cells and purified by Protein A; also called chimeric antibody

EC50 [8]: 669 ng/mL
B2: 6G12 antibody (antibody, V domains shown)
VH: B1 VH
VL: ELVMTQSPFSNAVTLGTSASISCRSSRSLLHSNGFTYLYWYLQKPGQSPQLLIYQMSNLASGVPDRFSSSGSGTDFTLRISRVEAEDVGVYYCGQNLELPLTFGAGTKLELK
notes: also called monoclonal antibody 6G12
